According to the DeepSol protein solubility set:

Assay: soluble on expression in E. coli; label from the status in PepcDB or PDB records

Row | Sequence | soluble on expression in E. coli
1 | MGSDKIHHHHHHMIKITQVRDGGNHVTQSTLTLDAWVERMKEEVKTCPVTMFRSQLRHVLPGDHCEAADKLPKMMPAAEFRKTEGGQCMKAYNGLVELTVGPLAGRAEVEQVKREAWKLPQTRCAFMGASGHSVKILVAFTRPDNTLPLTRAEAEAFHAHAYIMAVKCYQPQLSFDIRPKEPFLEQYSRLSYDPDVLYRPDSVQFYLSQPMGMPDEMALHTEPAVSGQRPLERALGSYETADALSMLFEAALRQAYIDLDKPDPADEKSSYSWDTLLSQLALNCFRSGIPEEAVVSRARFRHFVRKPLELVRQVVRNVYSRRQDFGSKCALSREQQLSVLIAEFMKRRYEFRFNVQTGEAEFRERHSFCFRFQPVDKRALNSIALDAQAEGIPLWDRDISRYVYSNRVPVYNPLEDFLFNLPEWDGRDRIRPLAQTVPCDNPHWPELFHRWFLNMVAHWRGMDKRYANSVSPLLVGAQGTRKSTLFDFLKLYLA | not soluble
2 | MGSDKIHHHHHHMIKMRIKPLEEYRIGLRQSSGIVIENVDVISAFPSPTTILGIIGAMKNAKPSQLSGIDDLREAYTSLTGNNTLSGDCDSSDNPLIWGPLIKEKDNKIYTPLFFNKLILDPIEYVKTSLNENVKVQSESLVKEIGIQIRRMNQMNRGSRNTIHLFYQKFFGSNYELEYCINIDDLKKLVKENVVALGGENRYARVRIDNGNCNFGNGNYAILLQPLLFESDSEYFVRLDNVKGLGCIDEIYGVLVEKGNKIDFNNFKVKVVYYALGYGNERRPMLQALPPGTVIKVKETCNNAKALGLLSELGFGAIYRVDPGNR | not soluble
3 | MGSDKIHHHHHHMIKVAAAGGGTGGHLYPLLAILETLAKRVDVKVLFFAVKGKIDERVVRKDHPEFETVSIDVRGLLRPLHHPKNLWRTLKIGIATIEVKKHLKRFKPDLVVLTGGYISGVVGLAAKDLGIPIFVHEQNVVPGLAVKVLSQYAKKVFVSFERTRDYLREWQDKIVVTGCPVRETEKEAPLKDFVLVLGGSLGSEAINELMEKVYPELQETQFVHSTGSDDWTERLSVFPNVTALTYIDPMGAYWKKAIASISRAGASTIAEMMYYGVPGILIPWESSAESHQLENALEAERLGYAIVIRENEASPRKIIESIDKVVKKGKIEKMKENPASKISKEILGEIM | not soluble
4 | MGSDKIHHHHHHMILLVGGEKGGSGKSCLAQNIAVHISQKHDANVLMVDCDPQRTTSDWIQARNNDPSLKAINCIQLYGKIRNDLLSLNDRFDYVIVDCGGQDNLAMRAAMSVATYVVIPLRPKRRDLKTLPHMEDMLSTCKMVNPKMIAAIVITQCPALPSQGKRILEAKEVVESFGLRALNSVTFSRNIYDDSEESGSSVLEIDPSGKAADEIRAIADELFAIPPENSYEFN | not soluble
5 | MGSDKIHHHHHHMILNSRTIDDAKFFDKPILLFFTDENCKDCDTIYSKLQDSTIFSKYIGKKVNALEYIHYTIRLTRGMIPTITILSPTLDLLAVIESKDLKFIENKLRELLDEYKRRIVKGIKLEGYTPDPIEPTPSIIYETINKVIGGYEADTRMIEVYLTYTNVYKEYLKAKDKIKCSDDVARYLLEGKGEIKIDEKSSANVSMLVNYGVTSVQKLLDFIDINSGEVYRSKKKETKGILLDEALAGNALVSEYERTINEEYLSLAIKVADYIKNNLQHERGFRDIKEIDNITKVPYLEPISNSEASIFFSRLWNITGDETYKNLALKGLGSALGGALNNPKVIARAAIAYLKLFDSIKANRYLNIIDARITVVKNNGCNDSMLYYSGQCYSKIDEIQPTAF | not soluble
6 | MGSDKIHHHHHHMILQVQPAKLIKRYKRFLADIELNCGEETTIHCANTGAMKGCAEPDDTVWYTTSTNTKRKYPFSWEITQSQDDHFICVNTLRANQLVEEALHLDLIKELSGFNELKREVKYGNENSRVDFLATYNNAPDTYIEVKSVTLLESGHGYFPDAVTTRGQKHLRELMDMVAQGHKAVLLFAVLHSGINDISAASHVDPIYAKLLKEARLAGVEIIAYKAGFSLQLGELDVKLVEKIPFIER | not soluble
7 | MGSDKIHHHHHHMIMQLDCALYQHPKLITVFGGSGFVGRHVVEALTKRGYRVRIAVRSPQKAYYMLQIGEVGQTQMLRTDIKCRASVARALLGSDGAVFLPGSLAQANQPNFQKTQIEGAQNVSELTAEAGIPLIYMSALVANKNASFLYARVKSMSEEIIHNEHPQAIIMRPSIIFGPEDCFFNNLANLSCFLPIIPLFGGGQSKLQPVYVGDVAEFIVRALEGQVISGKSYDLGGPQIITFQNVLEYILKIIHRKKTILSMPLSAGLFIGGLLGTIGKLPLAPTLVTASQIRFLQIDNIVSQEAIENGYTLEGVGITPKAMAALLPSYLWRFRPHGQFSRNLPA | not soluble
8 | MGSDKIHHHHHHMINTKEDFLLLIKQIEQKSGYKKPKAFGIARLDRGQLNKNKILQASFALINYEQNFGSAAIMLEAFMQRGVEIDFNASEFVQTLKLEDIDFALSCFKPFLEEDGHQNIDLLKIIKDKFKDDEFSFVCLFEDKEPLSVESIYLKLYLLSTKKVPLRSINLNGAFGLLSNVAWSDDKPIELEYLRANEMRLKMSNQYPKIDFVDKFPRFLAHIIPEDNTRILESSKVRMGASLAAGTTIMPGASYVNFNAGTTGACMVEGRISSSAIVGEGSDVGGGASILGVLSGTSGNAISVGKACLLGANSVTGIPLGDNCIVDAGIAVLEGTKFLLKDAEELAKLNPYFNFDKEIYKGLELKGLNGLHFRQDSISGAMIVALNKKAVKLNEALH | not soluble
9 | MGSDKIHHHHHHMIPIEIDSGSGFCFGVVNAIRHAEKQLEKSSDKLYCLGDIVHNTLEVERLGKKGLETIDYDAFSRLRGAKVLLRAHGEPPEIYRMAGENGVTIIDATCPVVLRLQNKIKSRYEATRSLGAQVVIYGKRGHAEVNGLVGQTEGTAIVIESEEELDKIDYTRPVILFSQTTKSLEGFGQIIDSISTRMQPGVTFEHHDTICRQVANRIPHIGAFATAHELVFFVAGEKSSNGKVLFGHCLAANPRSIFISSPEVIVPDMLVPLPASIGICGATSTPRWQMEEVASHIKALL | not soluble
10 | MGSDKIHHHHHHMIPSSMKAMVLKGHGGIDQLMYQDVPVPQPREGEVLVQVTATAKNNTDRKAREGLYPTKKGEMTSFQMGGKPTLTFPRIQGADIVGRIVAVGAGVSEQRIGERGLLDFNIYADNRTDINLTPDYYGHGADGGYAEYVALPSDQFHHIPNPDLADAELASMGMCSYQTAYHMLTSANIQAGERVLVTGASGGVGTALIQLCRIIGAIPYALSQKDKADSLLKLGAEAVLDRTDMDSFVDRVKAETGGKPLDAVMDLVGGDMTDRFIDAMIFDMNARSTYPRLSIAGASGGNISEILWTRIYLYQVQIFGVSHGTREEAEQLMRWIRSGDLKPVLHGAFRLSELHRAEEYFVNRGSNYLGKIVIVPDAQWQEHGQPYEVEAD | not soluble
11 | MGSDKIHHHHHHMIQADEVAERRLMNIPISGGQHGLFERLFAELRPKLHRYCARMTGSVFDGEDVLQETLAKAIEALPGAGPIANPEGWLFRIAHNAALDFLRRRAREQAYSDEDLDMIVDPANPTIDRQAASAGLHTFMRLPVTQRSSVIMMDVLGYSLQEISAMLDTSIPAVKAALHRGRDRLRQIANEPHDRPLPRLGAAERQLLNAYIDRFNARDFDAVRDMLAEEVRLELVAKTRLNGREEVGTYFGNYSRAQDWHLVPGFVENRPAILVHDLNDPATRPAYFIVLAWHDGRLAAIGDFRHARYVADSADMHAL | not soluble
12 | MGSDKIHHHHHHMIQQKVRVGLLGVGLDTYWGQFEGLLPRLLTYQDEIAAKIEAMDVQVINTGMVDSPLKANECVLQLKQADVELVFLFISTYALSSTILPVAQQVGKPIIILNIQPASAIDYQKLNSMGDRGRMTGEWLAHCQACSVPEFASVLNRAGVRYDIITGYLSEDYVWEEIASWVDAVRVMYGMRTSRLGVLGHYYCGMLDVYTDLMKQSAVFGTHIELLEMCELKAYREEVSDGELKRKLDEFYDKFNVEASCSSEELVRAARTSVALDKLVNVHQLGAMAYYYEGFCGNDYENIVTSVIAGNTLLTGYGIPVAGECEVKNAQAMKIMSLLKAGGSFSEFYAMDFKDDIVLLGHDGPAHFAIAEEKVKLVPLPLYHGKPGKGLSIQMSVKPGDVTLLSVCEGRDGVFLLAAEGEAVQGETLHIGNTNSRYRFPCGARRFMDQWSKAGPSHHCAIGIGHKVSELKKLAFLLDIPIIVVE | not soluble
13 | MGSDKIHHHHHHMIRGEMTMPSLTFQEIDNHLMNDNKPSNFIIELNKAGIIETEYPFTLLGALKDTPQSPKHHPEGSVWNHTLMVLDNAAERKHLSQNPQVLMWAALLHDLGKAPTTRVRKGRITSYDHDAVGEKLAGQFLRELTRDERFIHQVAKMVRWHMQILFVVKGLPFANVKKMAAEVSIEEIALLGFCDRLGRGEMTPQKKQEEEQTIEKFLVRCMEILQG | not soluble
